Test results reported in article PMC9482650, “Quantitative fragmentomics allow affinity mapping of interactomes” (Nature Communications, 2022).

T1: MPDZ_7, O75970
T1 sequence (O75970 1146-1253, limits assumed, looked up): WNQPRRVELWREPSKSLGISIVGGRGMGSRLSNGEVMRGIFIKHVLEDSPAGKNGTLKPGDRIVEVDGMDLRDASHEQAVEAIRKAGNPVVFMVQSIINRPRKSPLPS

T2: MAGI2_1, Q86UL8
T2 sequence (Q86UL8 12-111, limits assumed, looked up): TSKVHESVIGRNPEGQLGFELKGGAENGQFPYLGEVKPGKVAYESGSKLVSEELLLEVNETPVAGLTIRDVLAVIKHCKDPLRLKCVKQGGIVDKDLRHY

T3: PTPN4, P29074
T3 sequence (P29074 512-599, limits assumed, looked up): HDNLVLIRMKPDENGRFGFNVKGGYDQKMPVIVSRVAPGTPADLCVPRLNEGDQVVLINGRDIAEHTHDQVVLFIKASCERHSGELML

T4: PDZD8, Q8NEN9
T4 sequence (Q8NEN9 361-459, limits assumed, looked up): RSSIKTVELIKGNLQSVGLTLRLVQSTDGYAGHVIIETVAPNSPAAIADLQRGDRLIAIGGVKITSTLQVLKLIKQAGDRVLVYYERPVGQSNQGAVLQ

T5: SHANK2, Q9UPX8
T5 sequence (Q9UPX8 621-730, limits assumed, looked up): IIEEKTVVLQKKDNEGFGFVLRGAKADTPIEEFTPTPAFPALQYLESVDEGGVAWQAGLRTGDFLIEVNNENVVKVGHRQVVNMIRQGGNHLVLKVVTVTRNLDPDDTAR

T6: DVL1, O14640
T6 sequence (O14640 246-333, limits assumed, looked up): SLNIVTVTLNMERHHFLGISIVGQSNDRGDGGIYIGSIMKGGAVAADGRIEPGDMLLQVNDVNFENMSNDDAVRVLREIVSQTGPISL

T7: SNTB2, Q13425
T7 sequence (Q13425 110-208, limits assumed, looked up): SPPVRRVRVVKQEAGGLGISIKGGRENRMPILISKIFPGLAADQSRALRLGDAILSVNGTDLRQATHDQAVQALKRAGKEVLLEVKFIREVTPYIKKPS

T8: PDZD2_3, O15018
T8 sequence (O15018 581-682, limits assumed, looked up): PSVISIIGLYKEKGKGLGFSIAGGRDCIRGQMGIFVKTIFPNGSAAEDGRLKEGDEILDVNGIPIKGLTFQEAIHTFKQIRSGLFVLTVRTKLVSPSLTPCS

T9: MPDZ_11, O75970
T9 sequence (O75970 1720-1817, limits assumed, looked up): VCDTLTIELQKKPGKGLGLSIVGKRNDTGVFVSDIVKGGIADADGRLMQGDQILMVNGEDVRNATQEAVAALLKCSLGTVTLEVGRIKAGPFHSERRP

T10: PDZD2_4, O15018
T10 sequence (O15018 723-823, limits assumed, looked up): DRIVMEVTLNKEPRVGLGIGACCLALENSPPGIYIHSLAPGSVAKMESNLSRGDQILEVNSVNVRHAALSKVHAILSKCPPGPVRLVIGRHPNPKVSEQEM

T11: MPDZ_13, O75970
T11 sequence (O75970 1982-2070, limits assumed, looked up): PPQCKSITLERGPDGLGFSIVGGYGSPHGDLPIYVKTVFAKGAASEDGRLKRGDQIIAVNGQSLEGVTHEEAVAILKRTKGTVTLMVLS

T12: NHERF1_1, O14745
T12 sequence (O14745 9-104, limits assumed, looked up): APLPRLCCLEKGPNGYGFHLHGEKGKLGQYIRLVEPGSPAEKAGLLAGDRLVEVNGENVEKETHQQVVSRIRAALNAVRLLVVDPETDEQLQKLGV

T13: SIPA1L3, O60292
T13 sequence (O60292 961-1052, limits assumed, looked up): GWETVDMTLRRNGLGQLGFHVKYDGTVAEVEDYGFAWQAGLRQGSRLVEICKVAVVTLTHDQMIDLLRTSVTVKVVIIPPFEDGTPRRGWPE


Columns and labels:
Assay in all cases: holdup assay
Parameters in all cases: key: below the threshold = too weak to quantify, mostly under pKd 3.1 to 4
Conditions in all cases: plain residues with an end cap or a label only (N-terminal biotin on a linker: ttds)
MPDZ_7, O75970 = biological target: T1, MPDZ_7, O75970
MAGI2_1, Q86UL8 = biological target: T2, MAGI2_1, Q86UL8
PTPN4, P29074 = biological target: T3, PTPN4, P29074
PDZRN4_2, Q6ZMN7 = biological target: PDZRN4_2, Q6ZMN7
Chain of PDZRN4_2, Q6ZMN7 (Q6ZMN7 389-498): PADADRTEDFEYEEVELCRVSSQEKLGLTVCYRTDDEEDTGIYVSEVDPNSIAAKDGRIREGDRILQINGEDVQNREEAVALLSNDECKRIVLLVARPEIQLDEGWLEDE

TJP1_1, Q07157 = biological target: TJP1_1, Q07157
Chain of TJP1_1, Q07157 (Q07157 18-120): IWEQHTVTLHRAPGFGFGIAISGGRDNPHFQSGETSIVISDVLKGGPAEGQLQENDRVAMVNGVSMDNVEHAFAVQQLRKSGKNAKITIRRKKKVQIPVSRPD

GIPC3, Q8TF64 = biological target: GIPC3, Q8TF64
Chain of GIPC3, Q8TF64 (Q8TF64 107-202): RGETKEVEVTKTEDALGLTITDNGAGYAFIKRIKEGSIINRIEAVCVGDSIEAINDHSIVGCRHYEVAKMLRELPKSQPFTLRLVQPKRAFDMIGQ

PDZD8, Q8NEN9 = biological target: T4, PDZD8, Q8NEN9
NHERF2_1, Q15599 = biological target: NHERF2_1, Q15599
Chain of NHERF2_1, Q15599 (Q15599 9-91): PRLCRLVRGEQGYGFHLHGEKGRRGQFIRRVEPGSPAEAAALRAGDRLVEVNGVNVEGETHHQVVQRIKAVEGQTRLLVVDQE

IL16_2, Q14005 = biological target: IL16_2, Q14005
Chain of IL16_2, Q14005 (Q14005 350-450): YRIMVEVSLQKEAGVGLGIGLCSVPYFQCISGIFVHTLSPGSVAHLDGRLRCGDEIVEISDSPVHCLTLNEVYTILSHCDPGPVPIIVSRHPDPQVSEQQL

SCRIB_4, Q14160 = biological target: SCRIB_4, Q14160
Chain of SCRIB_4, Q14160 (Q14160 1095-1204): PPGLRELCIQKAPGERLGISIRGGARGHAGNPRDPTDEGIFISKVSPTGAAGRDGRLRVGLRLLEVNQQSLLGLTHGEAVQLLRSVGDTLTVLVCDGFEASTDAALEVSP

SHANK2, Q9UPX8 = biological target: T5, SHANK2, Q9UPX8
DVL1, O14640 = biological target: T6, DVL1, O14640
SNTB2, Q13425 = biological target: T7, SNTB2, Q13425
PDZD2_3, O15018 = biological target: T8, PDZD2_3, O15018
MPDZ_11, O75970 = biological target: T9, MPDZ_11, O75970
PDZD2_4, O15018 = biological target: T10, PDZD2_4, O15018
PARD3B_2, Q8TEW8 = biological target: PARD3B_2, Q8TEW8
Chain of PARD3B_2, Q8TEW8 (Q8TEW8 376-471): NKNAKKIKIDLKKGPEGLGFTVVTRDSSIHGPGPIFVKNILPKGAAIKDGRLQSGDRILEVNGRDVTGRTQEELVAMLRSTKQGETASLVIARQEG

MPDZ_13, O75970 = biological target: T11, MPDZ_13, O75970
MAST3, O60307 = biological target: MAST3, O60307
Chain of MAST3, O60307 (O60307 945-1048): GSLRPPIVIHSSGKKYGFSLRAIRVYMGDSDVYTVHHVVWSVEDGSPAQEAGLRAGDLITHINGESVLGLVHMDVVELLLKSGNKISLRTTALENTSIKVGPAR

NHERF1_1, O14745 = biological target: T12, NHERF1_1, O14745
SIPA1L3, O60292 = biological target: T13, SIPA1L3, O60292
RIMS2, Q9UQ26 = biological target: RIMS2, Q9UQ26
Chain of RIMS2, Q9UQ26 (Q9UQ26 637-758): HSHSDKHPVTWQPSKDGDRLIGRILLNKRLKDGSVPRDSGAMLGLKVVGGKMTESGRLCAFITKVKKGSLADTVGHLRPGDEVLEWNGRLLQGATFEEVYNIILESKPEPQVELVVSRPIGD

CNKSR3, Q6P9H4 = biological target: CNKSR3, Q6P9H4
Chain of CNKSR3, Q6P9H4 (Q6P9H4 203-303): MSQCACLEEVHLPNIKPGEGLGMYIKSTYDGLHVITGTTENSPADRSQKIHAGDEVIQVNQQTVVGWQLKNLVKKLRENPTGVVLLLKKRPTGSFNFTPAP

MAGI3_4, Q5TCQ9 = biological target: MAGI3_4, Q5TCQ9
Chain of MAGI3_4, Q5TCQ9 (Q5TCQ9 716-815): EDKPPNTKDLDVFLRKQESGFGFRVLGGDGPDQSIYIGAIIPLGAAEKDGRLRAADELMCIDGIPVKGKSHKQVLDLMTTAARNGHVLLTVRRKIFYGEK

Inadl_7, Q8NI35 = biological target: Inadl_7, Q8NI35
Chain of Inadl_7, Q8NI35 (Q8NI35 1219-1332): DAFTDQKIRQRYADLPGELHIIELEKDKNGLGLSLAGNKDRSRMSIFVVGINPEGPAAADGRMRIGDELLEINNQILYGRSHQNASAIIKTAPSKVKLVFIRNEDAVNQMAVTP

| Binder | pKd (MPDZ_7, O75970) | pKd (MAGI2_1, Q86UL8) | pKd (PTPN4, P29074) | pKd (PDZRN4_2, Q6ZMN7) | pKd (TJP1_1, Q07157) | pKd (GIPC3, Q8TF64) | pKd (PDZD8, Q8NEN9) | pKd (NHERF2_1, Q15599) | pKd (IL16_2, Q14005) | pKd (SCRIB_4, Q14160) | pKd (SHANK2, Q9UPX8) | pKd (DVL1, O14640) | pKd (SNTB2, Q13425) | pKd (PDZD2_3, O15018) | pKd (MPDZ_11, O75970) | pKd (PDZD2_4, O15018) | pKd (MPDZ_13, O75970) | pKd (MAST3, O60307) | pKd (NHERF1_1, O14745) | pKd (SIPA1L3, O60292) | other results |
| --- | --- | --- | --- | --- | --- | --- | --- | --- | --- | --- | --- | --- | --- | --- | --- | --- | --- | --- | --- | --- | --- |
| PKTPPTDTSV [KIR3DL3, Q8N743] | below the threshold | below the threshold | below the threshold | below the threshold | below the threshold | below the threshold | 4.36 | below the threshold | below the threshold | below the threshold | below the threshold | below the threshold | below the threshold | 4.08 | below the threshold | below the threshold | below the threshold | below the threshold | below the threshold | below the threshold | pKd (PARD3B_2, Q8TEW8): 4.37; pKd (RIMS2, Q9UQ26): below the threshold; pKd (CNKSR3, Q6P9H4): below the threshold; pKd (MAGI3_4, Q5TCQ9): below the threshold |
| SRPQRTQTQV [HPV67-E6, A4U7F2] | below the threshold | below the threshold | below the threshold | below the threshold | below the threshold | below the threshold | below the threshold | below the threshold | 4.25 | below the threshold | below the threshold | below the threshold | below the threshold | below the threshold | below the threshold | below the threshold | below the threshold | below the threshold | below the threshold | below the threshold | pKd (Inadl_7, Q8NI35): 4.46; pKd (RIMS2, Q9UQ26): below the threshold; pKd (CNKSR3, Q6P9H4): below the threshold; pKd (MAGI3_4, Q5TCQ9): below the threshold |
| SVWLRKETRV [CYSLTR2, Q9NS75] | 4.33 | below the threshold | 4.52 | below the threshold | 4.78 | below the threshold | below the threshold | below the threshold | below the threshold | 4.91 | below the threshold | 4.32 | 5.14 | below the threshold | below the threshold | 4.48 | below the threshold | below the threshold | below the threshold | below the threshold | pKd (PARD3B_2, Q8TEW8): below the threshold; pKd (Inadl_7, Q8NI35): below the threshold; pKd (RIMS2, Q9UQ26): below the threshold; pKd (CNKSR3, Q6P9H4): below the threshold; pKd (MAGI3_4, Q5TCQ9): below the threshold |
| SSRTRRETQL [HPV16-E6, P03126] | 4.22 | below the threshold | 4.61 | below the threshold | 4.22 | below the threshold | below the threshold | below the threshold | below the threshold | below the threshold | below the threshold | below the threshold | 4.12 | below the threshold | below the threshold | below the threshold | below the threshold | below the threshold | 4.15 | below the threshold | pKd (PARD3B_2, Q8TEW8): below the threshold; pKd (Inadl_7, Q8NI35): below the threshold; pKd (RIMS2, Q9UQ26): below the threshold; pKd (CNKSR3, Q6P9H4): below the threshold; pKd (MAGI3_4, Q5TCQ9): below the threshold |
| RSLEEEESQL [GRASP, Q7Z6J2] | below the threshold | below the threshold | below the threshold | below the threshold | below the threshold | below the threshold | below the threshold | below the threshold | below the threshold | below the threshold | 4.33 | below the threshold | below the threshold | below the threshold | below the threshold | below the threshold | below the threshold | below the threshold | 4.46 | below the threshold | pKd (PARD3B_2, Q8TEW8): below the threshold; pKd (Inadl_7, Q8NI35): below the threshold; pKd (RIMS2, Q9UQ26): below the threshold; pKd (CNKSR3, Q6P9H4): 4.6; pKd (MAGI3_4, Q5TCQ9): below the threshold |
